Assay results from patent publication US9132169B2, “Methods and compositions for modulating adipocyte function” (Joslin Diabetes Center, Inc., priority 2003, dated 2015).
“Also recorded” adds a separate entry of the source.

Assays:
WT brown preadipocytes = assay: Brown adipocyte differentiation, Oil Red O staining; assay type: cell-based, mouse; settings: for differentiation of brown preadipocytes, agent alone: brown preadipocyte cell line, single agent; for lipid accumulation as monitored by Oil Red O staining (brown adipocyte differentiation): 33 nM BMP, 10 days, absence of induction cocktail; for differentiation of brown preadipocytes, BMP plus insulin and T3: combination of BMP-6 or -7 plus insulin and T3
Method: (§1) Preadipocytes were grown to confluence (day 0) in differentiation medium (Dulbecco's modified […] medium containing 10% Fetal Bovine Serum supplemented with 20 nM insulin and 1 nM T3). Adipocyte differentiation was induced by treating confluent cells for 48 hours in differentiation medium further supplemented with 0.5 mM isobutylmethylxanthine (IBMX), 0.5 mM dexamethazone, and 0.125 mM indomethacin. After this induction period (day 2), cells were placed back to differentiation medium, which was then changed every second day.
(§2) Dishes were washed twice with phosphate-buffered saline and fixed with 10% buffered formalin for at least 1 hour at room temperature. Cells were then stained for 2 hours at room temperature with a filtered oil red 0 solution (0.5% oil red 0 in isopropyl alcohol), washed twice with distilled water, and visualized.
Brown fat precursor cells were isolated from intrascapular brown fat of newborn mice and immortalized by SV40 T antigen.
To begin to explore the role of BMPs on brown adipogenesis, the effect of six different BMPs on differentiation of WT brown preadipocytes was examined. In the absence of induction cocktail, 33 nM of BMPs were added to the normal culture medium and fresh medium was changed every 2 days.

BMP-6 gene expression = BMP-6 gene expression in wildtype brown adipocytes; assay type: cell-based, mouse; settings: acute treatment
[1] = tested on: Pref-1 (preadipocyte factor-1); assay: Pref-1 expression by quantitative RT-PCR in IRS-1 KO cells; assay type: cell-based, mouse; settings: 30 nM over six days
Text: IRS-1 signalling plays an important role in insulin resistance, which is a hallmark of Type II diabetes.

Smad 1/5/8 = assay: BMP signaling in WT brown preadipocytes, phospho-specific antibody Western blot; assay type: cell-based, mouse
Method: (§3) Brown fat precursor cells were isolated from intrascapular brown fat of newborn mice and immortalized by SV40 T antigen. […] Following differentiation with an induction cocktail of 20 nM insulin, 1 nM thyroid hormone [3,5,3′-triiodothyronine (T3)], 0.5 μM dexamethazone, 0.125 mM indomethacin, and 0.5 mM isobutylmethylxanthine, pre-adipocytes became smaller, rounded up, accumulated fat, and the cytoplasm/nuclear-ratio increased dramatically. Once fully differentiated, multi-locular fat droplets could be detected both microscopically and by Oil Red-O staining. Expression of UCP-1 was detected at basal state and upon β-adrenergic stimulation, confirming the features of brown adipocytes (methods described in Klein et al., J. Biol. Chem. 274:34795-34802 (1999)).
(§4) To see if BMPs were able to transmit signals into these cells, the WT brown preadipocytes were treated with recombinant BMP-6 (R&D Systems).

p38 MAPK = assay: as above; assay type: cell-based, mouse; settings: WT brown preadipocytes treated with recombinant BMP-6, phospho-specific antibodies (Thr180/Tyr182)
Method: as §3, §4

PPARγ = PPARγ mRNA and protein expression in brown preadipocytes; assay type: cell-based, mouse
Text: (§5) PGC-1∀ and UCP-1 are two decisive cellular markers of brown adipocytes.

[2] = tested on: IRS-1 KO brown preadipocytes; assay: Differentiation of IRS-1 knockout brown preadipocytes; assay type: cell-based, mouse
Method: as §1, §2
These factors utilize a complex signaling pathway to exert their pleiotropic biological effects involving activation of their respective cell surface receptors and phosphorylation of several intracellular insulin/IGF-1 receptor substrates (IRS). To determine the role of this signaling pathway in the regulation of brown adipogenesis and metabolism, brown preadipocyte cell lines were generated from wild-type (WT) and different IRS knockout (KO) mice (Fasshauer et al., Mol Cell Biol 21:319-329 (2001); Tseng et al., J Biol. Chem. 277:31601-31611 (2002); Tseng et al., Mol Cell Biol 24:1918-1929 (2004)). These cells were studied in both their fibroblastic and differentiated states. […] This occurred not only at the levels of lipid accumulation, but also involved blockade of the normal pattern of progression in the transcriptional regulators of adipogenesis, such as C/EBPα and PPARγ, as well as thermogenic marker UCP-1.
The differentiation inductive effect of BMP-6 is more easily seen in brown adipocytes from IRS-1 knockout animals, which are known to have a defect in adipocyte differentiation. […]

[3] = tested on: white preadipocytes (3T3-L1 cells); assay: White preadipocyte differentiation, Oil Red O staining; assay type: cell-based; settings: for insulin- and insulin/T3-induced differentiation of 3T3-L1 cells: BMP alone or combined with insulin
Method: as §1, §2

PGC-1a = PGC-1a mRNA expression by quantitative RT-PCR in brown preadipocytes; assay type: cell-based, mouse
Text: as §5

[4] = tested on: FAS (fatty acid synthase); assay: FAS protein expression in MEF whole cell lysates; assay type: cell-based, mouse; settings: MEF cells, presence of induction cocktail or TZD
Method: (§6) MEF cells were grown in culture media containing 1 μM of rosiglitazone, BMPs, or a combination of both for 10 days. Oil Red O staining was performed at the end of differentiation to monitor the degree of adipogenesis. […] Whole cell lysates were isolated from these cells to examine the expression of the adipogenic marker FAS (fatty acid synthase).

[5] = tested on: mouse embryonic fibroblasts (MEFs); assay: Adipogenesis in mouse embryonic fibroblasts, Oil Red O staining; assay type: cell-based; settings: MEF cells, 1 μM rosiglitazone plus BMP, 10 days
Method: To examine whether BMPs play a role in determining the fate of pluripotent stem cells toward brown adipocyte lineage, murine pluripotent cells, the effect of BMPs on adipogenesis was evaluated in mouse embryonic fibroblasts (MEFs), which were generated lab using the 3T3 protocol of Todaro and Green (J. Cell. Biol. 17:299-313 (1963)). The MEF cells were maintained in Dulbecco's Modified Eagle Medium (DMEM) supplemented with 10% FBS.
as §6

UCP-1 = UCP-1 protein expression by Western blot in brown preadipocytes; assay type: cell-based, mouse; settings: combination of 20 nM insulin, 1 nM T3 and 8.3 nM BMP-7
Text: as §5

UCP-1 promoter = assay: UCP-1 expression reporter gene (UCP-1 promoter linked to firefly luciferase); assay type: cell-based; settings: 10 uM TZD and retinoic acid, presence of PPARγ and RxRa
Text: Adaptive thermogenesis is an important component of energy homeostasis and a metabolic defense against obesity.

[6] = standard induction conditions (W induction)

N[C@@H](Cc1cc(I)c(Oc2ccc(O)c(I)c2)c(I)c1)C(=O)O [T3, 3,5,3′-triiodothyronine, reference compound]
differentiation of brown preadipocytes, agent alone (WT brown preadipocytes): pro-differentiative effects

IGF-1: known inducer of adipocyte differentiation
BMP-6 gene expression (BMP-6 gene expression): acutely induce

insulin: known inducer of adipocyte differentiation
BMP-6 gene expression (BMP-6 gene expression): acutely induce | differentiation of brown preadipocytes, agent alone (WT brown preadipocytes): pro-differentiative effects

B1: BMP-5: bone morphogenetic protein 5, added at 33 nM to culture medium (protein, listed as Homo sapiens)
chain: NQNRNKSSSHQDSSRMSSVGDYNTSEQKQACKKHELYVSFRDLGWQDWIIAPEGYAAFYCDGECSFPLNAHMNATNHAIVQTLVHLMFPDHVPKPCCAPTKLNAISVLYFDDSSNVILKKYRNMVVRSCGCH
lipid accumulation as monitored by Oil Red O staining (brown adipocyte differentiation) (WT brown preadipocytes): weaker effect

B2: BMP-4: bone morphogenetic protein 4, added at 33 nM to culture medium (protein, listed as Homo sapiens)
chain: SPKHHSQRARKKNKNCRRHSLYVDFSDVGWNDWIVAPPGYQAFYCHGDCPFPLADHLNSTNHAIVQTLVNSVNSSIPKACCVPTELSAISMLYLDEYDKVVLKNYQEMVVEGCGCR
lipid accumulation as monitored by Oil Red O staining (brown adipocyte differentiation) (WT brown preadipocytes): substantial increase in lipid accumulation

B3: BMP-6: Recombinant human BMP-6 (R & D Systems, MN) (protein, listed as Homo sapiens)
chain: RSASSRRRQQSRNRSTQSQDVARVSSASDYNSSELKTACRKHELYVSFQDLGWQDWIIAPKGYAANYCDGECSFPLNAHMNATNHAIVQTLVHLMNPEYVPKPCCAPTKLNAISVLYFDDNSNVILKKYRNMVVRACGCH
Pref-1 expression [1]: down-regulation | activation of Smad 1/5/8 (Smad 1/5/8; WT brown preadipocytes treated with recombinant BMP-6): quickly activated | activation of Smad 1/5/8 (Smad 1/5/8; WT brown preadipocytes treated with recombinant BMP-6, listed as BMP6): activation | activation of p38 MAPK (p38 MAPK): quickly activated | activation of p38 MAPK (p38 MAPK; listed as BMP6): activation | PPARγ protein expression (PPARγ; BMP-6 treatment, course of differentiation (0, 3, 6 days), Western blot): markedly induced; also recorded: approximately maximal by day 3; also recorded: increase | PPARγ mRNA expression (PPARγ; BMP-6 treatment, course of differentiation (0, 3, 6 days), quantitative RT-PCR): markedly induced; also recorded: approximately maximal by day 3; also recorded: increase | expression of PPARγ during spontaneous differentiation (PPARγ; addition of recombinant BMP-6): induced expression | morphology of wild-type brown pre-adipocytes (WT brown preadipocytes): cause changes in the morphology | lipid accumulation as monitored by Oil Red O staining (brown adipocyte differentiation) (WT brown preadipocytes): substantial increase in lipid accumulation | differentiation of wildtype brown preadipocytes, without induction (WT brown preadipocytes; absence of standard induction conditions (W/O induction)): increased the level of brown adipocyte differentiation | differentiation of brown preadipocytes, agent alone (WT brown preadipocytes): pro-differentiative effects | differentiation of brown preadipocytes, BMP plus insulin and T3 (WT brown preadipocytes): strongly enhanced | differentiation of wildtype brown preadipocytes, with induction (WT brown preadipocytes; [6]): enhance differentiation; also recorded: enhanced the level of differentiation | acceleration of differentiation (Oil Red O staining) (WT brown preadipocytes; wild-type brown adipocytes, presence of induction cocktail): 1 to 2 days | differentiation of IRS-1 KO brown preadipocytes ([2]; 30 nM over six days): restores the defects in differentiation | BAT differentiation of IRS-1 knockout preadipocytes, without induction ([2]; W/O induction): no change | differentiation of IRS-1 knockout brown preadipocytes, with induction [2, 6]: rescue, at least partially; also recorded: enhanced the level of differentiation | differentiation of white preadipocytes ([3]; 33 nM, 8 days): did not induce differentiation | insulin- and insulin/T3-induced differentiation of 3T3-L1 cells [3]: Little to no effect | WAT differentiation (3T3-L1), without induction ([3]; W/O induction): no change | differentiation of 3T3-L1 cells, with induction [3, 6]: inhibited the level of differentiation | PGC-1a mRNA expression at day 3 (PGC-1a; Q-RT-PCR, day 3): quickly induced | PGC-1a mRNA expression as differentiation progressed to day 9 (PGC-1a; Q-RT-PCR, to day 9): further increased | expression of PGC-1 during spontaneous differentiation (PGC-1a; addition of recombinant BMP-6): induced expression | PGC-1a mRNA expression at 0, 3, and 6 days after treatment (PGC-1a; quantitative RT-PCR, FIG. 3): increase | FAS protein expression [4]: induced FAS protein expression | TZD effects on adipocyte differentiation (Oil Red O) [5]: potentiated the TZD effects

B4: BMP-3: bone morphogenetic protein 3, added at 33 nM to culture medium (protein, UniProt P12645 363-472, looked up)
Bone morphogenetic protein 3: QWIEPRNCARRYLKVDFADIGWSEWIISPKSFDAYYCSGACQFPMPKSLKPSNHATIQSIVRAVGVVPGIPEPCCVPEKMSSLSILFFDENKNVVLKVYPNMTVESCACR
lipid accumulation as monitored by Oil Red O staining (brown adipocyte differentiation) (WT brown preadipocytes): no effect

B5: BMP-7: bone morphogenetic protein 7 (protein, listed as Homo sapiens)
chain: STGSKQRSQNRSKTPKNQEALRMANVAENSSSDQRQACKKHELYVSFRDLGWQDWIIAPEGYAAYYCEGECAFPLNSYMNATNHAIVQTLVHFINPETVPKPCCAPTQLNAISVLYFDDSSNVILKKYRNMVVRACGCH
PPARγ expression, combination treatments (PPARγ; combination of 20 nM insulin, 1 nM T3 and 8.3 nM BMP-7, Western blot): strongest induction | lipid accumulation as monitored by Oil Red O staining (brown adipocyte differentiation) (WT brown preadipocytes): substantial increase in lipid accumulation | differentiation of brown preadipocytes, agent alone (WT brown preadipocytes): pro-differentiative effects | differentiation of brown preadipocytes, BMP plus insulin and T3 (WT brown preadipocytes): strongly enhanced | differentiation of brown preadipocytes, insulin plus B7 (WT brown preadipocytes; combination with insulin): strong combination effects | UCP-1 expression, combination treatments (UCP-1): strongest induction | insulin- and insulin/T3-induced differentiation of 3T3-L1 cells [3]: Little to no effect | FAS protein expression [4]: induced FAS protein expression | TZD effects on adipocyte differentiation (Oil Red O) [5]: potentiated the TZD effects | TZD/RA-induced stimulation of UCP-1 promoter activity (UCP-1 promoter): enhanced
